Consider 20 proteins from patent publication US20210324011A1 (University of Washington, published 2021).

The labels stand for the following.
B1: DHF51 (designed binder)
chain: AVDQMIRVIVLVKEAEEALLNAKLLGSEMALTLALRTAEEAARVAKTVLELAEKDGDPVVALLAVELVVRVAELLLRIAKESGSEEALERALRVAEEAARLAKRVLELAEKQGDPEVALRAVELVVRVAELLLRIAKESGSEEALERALRVAEEAARLAKRVLELAEKQGDPEVARRAVELVKRVAELLERIARESGSEEAKERAERVREEARELQERVKELREREG
notes: vector pCDB24 (SUMO fusion); forms a homo-polymer
B2: DHF4 (designed binder)
chain: ADEELARILIEMAKTAAEAAQMAAEVTGDPRVRLLAVRLKMLALMAALEVILDPSSSDVNEALKLIVEAIEAAVKALLAAVRTGDPEVRELARELVRLAVEAAEEVQRNPSSSDVNEALKLIVEAIEAAVRALEAAERTGDPEVRELARELVRLAVEAAEEVQRNPSSEEVNEALKKIVKAIQEAVESLREAEESGDPEKREKARERVREAVERAEEVQRN
notes: as for B1
B3: DHF48 (designed binder)
chain: MAVEEAIRVMRLVREAEQVLLQAKMMGSERVLEMALRTAEEAAREAKLVLAVAELEGDPVVALIAVELVVRVAELLLRIAKESGSEEALERALRVAEEAARLAKRVLELAEKQGDPEVALRAVELVVRVAELLLRIAKESGSEEALERALRVAEEAARLAKRVLELAEKQGDPEVARRAVELVKRVAELLERIARESGSEEAKERAERVREEARELQERVKELREREGLE
notes: vector pET28b; forms a homo-polymer
B4: DHF52 (designed binder)
chain: SLKELLELERVAVEAIVAAAEGNTMEVIEQLQRAMLIAVLSGTTSAVKLALEVVARVAIEAARIGNTDAVRIALSVALTIAVISGTTEAVKLALEVVARVAIEAARRGNTDAVREALEVALEIARESGTEEAVRLALEVVKRVSDEAKKQGNEDAVKEAEEVRKKIEEESG
notes: as for B1
B5: DHF76 (designed binder)
chain: MGLEKEVLRVKLVKICVLLARLKGDDTEEAREAARQAFEVVRLAAELAGIDSSEVLELAIRLIKECVENAQREGYDISLACMLAALAFKRVAEAAKRAGITSSEVLELAIRLIKECVENAQRDGYDISEACRAAAEAFKRVAEAAKRAGITSSETLKRAIEEIRKRVEEAQREGNEISEACRQAAEEFRKKAEELKRLE
notes: as for B3
B6: DHF50 (designed binder)
chain: AIVQLMTVIAMAVIANALLIRAIVNGSAEDLEKALRTAEEAAREAKKVLEQAEKDGDPEVALRAVELVVLVAVNLLLIAKESGSEEALERALRVAEEAARLAKRVLELAEKVGDPEVALRAVELVVRVAELLLRIAKESGSEEALERALRVAEEAARLAKRVLELAEKQGDPEVARRAVELVKRVAELLERIARESGSEEAKERAERVREEARELQERVKELREREG
notes: as for B1
B7: DHF49 (designed binder)
chain: MGHHHHHHSSGSDEEEARELIERAAEAAKRAVEAAERTGDPNVVELAKELVRLAQEAAEEVKRDPSSSDVNEALKLIVEAIEAAVRALEAAERTGDPVVRLLARELVRLAVEAAEEVQRNPSSSDVNEALKLIVEAIEAAVRALEAAERTGDPEVRELARELVRLAVEAAEEVQRNPSSEQVNEALKKIVKAIQEAVESLREAEESGDPEKRDKARLRVLEAVIRAMVVQIN
notes: as for B3
B8: DHF34 (designed binder)
chain: AEVILLVAVLLLAKAVEAVLMGNRVAFRLAAELALRVAKLLVIMAKVEGDPELVLEAAKVALVVASLAALNGDKEVFKKAAESALEVAKRLVEVASKEGDPELVLEAAKVALKVAELAAKNGDKEVFKKAAESALEVAKRLVEVASKEGDPELVEEAAKVAEEVRKLAKKQGDEEVYEKARETAREVKEELKRVREEKG
notes: as for B1
B9: DHF5 (designed binder)
chain: ALDLLARVIVLVMEAVKLLVLAVIMGLEMILRVALRLAEEAARAAKAVLLLAEVEGDPEVALKAVELVVRVAELLLRIAKESGSEEALERALRVAEEAARLAKRVLELAEKQGDPEVALRAVELVVRVAELLLRIAKESGSEEALERALRVAEEAARLAKRVLELAEKQGDPEVARRAVELVKRVAELLERIARESGSEEAKERAERVREEARELQERVKELREREG
notes: as for B1
B10: DHF78 (designed binder)
chain: MGELVLLVAKLALAVAVQASALGDEEVFRKAAEKALELAKRLVELAKLIGDPELVLEAAKVALEVAELAAKNGDKEVFKKAAESALEVAKRLVEVASKEGDPELVLEAAKVALRVAELAAKNGDKEVFKKAAESALEVAKRLVEVASKEGDPELVEEAAKVAEEVRKLAKKQGDEEVYEKARETAREVKEELKRVREEKGLE
notes: as for B3
B11: DHF62 (designed binder)
chain: MGIVLVIESLEAEVRLEKAKVLSVLARVRGDLKELAEALIEEARAVQELARVACEKGNSEEAERASEKAQRVLEEARKVSEEAREQGDDEVLALALIAIALAVLALAEVACCRGNSEEAERASEKAQRVLEEARKVSEEAREQGDDEVLALALIAIALAVLALAEVACCRGNKEEAERAYEDARRVEEEARKVKESAEEQGDSEVKRLAEEAEQLAREARRHVQECRGLE
notes: as for B3
B12: DHF36 (designed binder)
chain: MVEKNMLRLRLVKIVVENAKTKGDDTEEAREAAREAFEKVRVAAEVAGIDSSEVLELAIRLIKEVVLLALLEGYDISEAARAAAEAFVRVAVAAKIAGITSSEVLELAIRLIKEVVMNAMMEGYDISEAARAAAEAFKLVAEAAKRAGITSSETLKRAIEEIRKRVEEAQREGNNISVAALEAADEFRKKAEELKRRGLE
notes: as for B3
B13: DHF46 (designed binder)
chain: MGHHHHHHSSGTKEERVLLMKVAILAIVAAKKGNTDEVRKALELALLIAKVSGTTEAVKLALEVVARVAIEAARRGNTDAVREALEVALEIARESGTTEAVKLALEVVARVAIEAARRGNTEAVVEALLVALEIAKESGTEEAVRLALEVVKRVSNEALKQGNVDAVKVALEVRKMIEELSG
notes: vector pET28b; forms a homo-polymer; cryoEM PDB 6E9R
B14: DHF77 (designed binder)
chain: MGDSMKLVMLLLKKAVTLAKLNNDDMVALEIERAAKQIVLALAVNKSDEMAKVMLALAKAVLLAAKNNDDEVAREIARAAAEIVEALKENNSDEMAKVMLALAKAVLLAAKNNDDEVAREIARAAAEIVEALRENNSDEMAKKMLELAKRVLDAAKNNDDETAREIARQAAEEVEADRENLE
notes: as for B3
B15: DHF40 (designed binder)
chain: SSEKEELRERLVKICVELAKLKGDDTLKAAEAAEEAFRLVVLAAMLAGIDSSEVLELAIRLIKTCVVLAAMEGYDISEACRAAAEAFTRVAMAALRAGITSSLVLKAAIELIKECVLNAAVEGYDISEACRAAAEAFKRVAEAAKRAGITSLETLLRAIEEIRKRVEEAQREGNDISEACRQAAEEFRKKAEELKRRGDV
notes: as for B1
B16: DHF38 (designed binder)
chain: AEELLKRVEKLVKEAEELLRQAMKKGSEELLEVALVVAQMAAREAKKVLTMAEVEGDPEVALRAVELVVRVAELLLRIALVSGSEEALERALRVAEEAARLAKRVLELAESQGDPEVALRAVELVVRVAELLLLIAKVSGSEEALERALRVAEEAARLAKRVLELAEKQGDPAVAILAVMLVKRVAELLENIARESGSEEAKERAERVREEARELQERVKELKERAG
notes: vector pCDB24 (SUMO fusion, removed with SUMO protease); forms a homo-polymer; cryoEM PDB 6E9Y
B17: DHF31 (designed binder)
chain: AAIETLNVMTLVMLALLLLIQAISKGSAEDLEKALRTAEEAAREAKKVLEQAEKEGDPDQALKAVELVVVVAQLLLQIAIASGSREALERALRVAEEAARLAKRVLELAEKQGDPEVALRAVELVVRVAELLLRIAKESGSEEALERALRVAEEAARLAKRVLELAEKQGDPEVARRAVELVKRVAELLERIARESGSEEAKERAERVREEARELQERVKELREREG
notes: as for B1
B18: DHF44 (designed binder)
chain: AVLALMVVNLLVQLAIELLSRAMLKGSAEDLEKALRTAEEAAREAKKVLEQAEKDGDPEVALLAVELVVVVATILLMIAKISGSEEALERALRVAEEAARLAKRVLELAEKQGDPEVALRAVELVVRVAELLLRIAKESGSEEALERALRVAEEAARLAKRVLELAEKQGDPEVARRAVELVKRVAELLERIARESGSEEAKERAERVREEARELQERVKELREREG
notes: as for B1
B19: DHF58 (designed binder)
chain: MELLRVVMLVKEAEELLTLAVIKGSEDDLQKALRTAVEAAREAVKVLLQAVKRGDPEVALRAVELVVRVAELLLRIAKESGSELALKMALLVAEEAARLAKIVLELAEKQGDPEVALRAVELVVRVAELLLRIAKESGSEEALERALRVAEEAARLAKRVLELAEKQGDPEVARRAVELVKRVAELLERIARESGSEEAKERAERVREEARELQERVKELREREGLE
notes: vector pET28b; forms a homo-polymer; cryoEM PDB 6E9T (4-repeat structure); also called DHF58 four-repeat protomer
B20: DHF47 (designed binder)
chain: INLTIAILVAILVATMVELVAIRAQLEGNPELAASAMELRRAVEEAIEEAEKQGNPLLVLWVAVAAKVAAEVIKVAIQAEKEGNRDLFRAALELVRAVIEAIEEAVKQGNPELVEWVARAAKVAAEVIKVAIQAEKEGNRDLFRAALELVRAVIEAIEEAVKQGNPELVERVARLAKKAAELIKRAIRAEKEGNRDERREALERVREVIERIEELVRQGN
notes: as for B1

This data set concerns the molecule itself. Description: negative stain EM; 1 = filaments observed (self-assembly). From the text: The designs were expressed in Escherichia coli under the control of a T7 promoter and purified using immobilized metal affinity chromatography (IMAC). […] IMAC eluates were concentrated, and filament formation was monitored by negative stain electron microscopy (EM); insoluble designs were characterized by EM either directly in the initial insoluble fraction, or after solubilization in guanidine hydrochloride, IMAC, and subsequent removal of denaturant.
Negative Stain Electron Microscopy. Soluble fractions were concentrated and insoluble fractions were resuspended in buffer (25 mM Tris, 75 mM NaCl, pH 8) for EM screening. A drop of 6 μL (1 μl sample instantly diluted with 5 μl of buffer) was applied on negatively glow discharged, carbon-coated 200-mesh copper grids (Ted Pella, Inc.), washed with Milli-Q™ Water and stained using 0.75% uranyl formate as described previously (28). The screening was performed on either a 120 kV Tecnai Spirit™ T12 transmission electron microscope (FEI, Hillsboro, Oreg.) or a 100 kV Morgagni M268 transmission electron microscope (FEI, Hillsboro, Oreg.). Images were recorded on a bottom mount Teitz CMOS™ 4 k camera system. The contrast of the images was enhanced in the Fiji software (29) for clarity.
For B1, the binding result was “binds”. To B2 belongs “binds”; to B3, “binds”. To B4 belongs “binds”. As to B5, the binding result is “binds”.

Turning to B6, the binding result was “binds”. With B7, the binding result is “binds”.

Consider B8, for which the binding result is reported as “binds”. As to B9, the binding result is “binds”. For the protein B10, the binding result is given as “binds”. Consider B11, for which the binding result is given as “binds”. For the protein B12, the binding result is given as “binds”.

With B13, the binding result is recorded as “binds”. On to B14, for which the binding result is “binds”. To B15 belongs “binds”. Take B16: the binding result is reported as “binds”.

Take B17: the binding result was “binds”. With B18, the binding result is on record as “binds”. Next, B19: “binds”; B20: “binds”.
